This is an account of results in patent publication US20220119534A1 (DRAGONFLY THERAPEUTICS, published 2022).

Substitutions are numbered along the chain they refer to.

In experiment [1] the target is T1, recombinant human CLEC12A-His (human, UniProt Q5QGZ9 65-265).
T1 construct: also called hCLEC12A-His; hCLEC12A
T1 sequence: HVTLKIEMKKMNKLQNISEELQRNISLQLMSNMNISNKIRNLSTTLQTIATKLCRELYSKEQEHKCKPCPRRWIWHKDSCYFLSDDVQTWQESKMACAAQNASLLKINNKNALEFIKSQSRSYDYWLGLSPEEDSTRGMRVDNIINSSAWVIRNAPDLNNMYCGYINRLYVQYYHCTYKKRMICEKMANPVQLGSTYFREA
Briefly: SPR, purified murine mAb.

Experiment [2] addresses T2, recombinant cynomolgus CLEC12A-His (cynomolgus monkey, UniProt A0A2K5WXQ4 71-271).
T2 construct: also called cCLEC12A-His; cCLEC12A
T2 sequence: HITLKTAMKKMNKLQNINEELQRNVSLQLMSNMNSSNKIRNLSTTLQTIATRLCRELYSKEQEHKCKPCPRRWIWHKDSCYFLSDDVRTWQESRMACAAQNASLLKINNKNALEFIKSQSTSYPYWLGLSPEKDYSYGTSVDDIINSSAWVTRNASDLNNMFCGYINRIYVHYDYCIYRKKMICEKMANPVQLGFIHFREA
The experiment can be described thus: SPR, purified murine mAb. (In SPR one partner is held on a chip, and binding of the other changes the refractive index at the surface.)

Experiment [3] has as its target T3, human CLEC12A on cells (HL60, PL21, Ba/F3-hCLEC12A) (human, UniProt Q5QGZ9 1-265).
T3 construct: Endogenous on the AML lines HL60 and PL21; brought into mouse Ba/F3 cells by retroviral transduction; The cell line stands under assay; also called CLL-1
T3 sequence: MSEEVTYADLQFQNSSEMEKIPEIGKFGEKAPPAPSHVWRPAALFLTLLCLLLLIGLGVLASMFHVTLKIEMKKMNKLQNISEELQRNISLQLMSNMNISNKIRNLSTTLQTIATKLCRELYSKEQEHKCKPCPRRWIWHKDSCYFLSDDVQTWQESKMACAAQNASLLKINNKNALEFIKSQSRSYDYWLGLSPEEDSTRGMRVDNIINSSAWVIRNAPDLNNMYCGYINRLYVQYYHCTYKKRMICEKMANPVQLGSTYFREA
The experiment can be described thus: flow cytometry, HL60 cells. For orientation: Flow cytometry measures light scatter and fluorescence of single cells or particles in a stream.

Experiment [4] concerns the target T3, human CLEC12A on cells (HL60, PL21, …). The experiment can be described thus: flow cytometry, PL21 cells.
Experiment [5] has the same target. The experiment can be described thus: flow cytometry, Ba/F3-hCLEC12A cells.
For experiment [6] the target is unchanged. The experiment can be described thus: flow cytometry, 40 nM, MFI after 2 h 37 C relative to 2 h on ice, HL60 cells.
Experiment [7] shares this target. The experiment can be described thus: flow cytometry, 40 nM, MFI after 2 h 37 C relative to 2 h on ice, PL21 cells.
The target of experiment [8] is T1, recombinant human CLEC12A-His. Briefly: SPR screening.
The target is the same in experiment [9]. Briefly: SPR.
Another experiment deals with T4, de-sialylated hCLEC12A (human, UniProt Q5QGZ9 65-265, terminal sialic acids removed (neuraminidase)).
T4 construct: also called De-sialylated CLEC12A
T4 sequence: T1 sequence
Briefly: SPR.

Another experiment addresses T5, de-glycosylated hCLEC12A (human, UniProt Q5QGZ9 65-265, N-linked glycans removed (PNGase F)).
T5 construct: also called PNGase-treated hCLEC12A; De-glycosylated CLEC12A
T5 sequence: T1 sequence
Briefly: SPR.

In experiment [10] the target is T6, Human CLEC12A expressed on cells (Ba/F3-hCLEC12A, PL21, HL60) (human, UniProt Q5QGZ9 1-265).
T6 sequence: T3 sequence
The experiment can be described thus: cell-based or functional assay.

Experiment [11] concerns the target T6, Human CLEC12A expressed on cells …. The experiment can be described thus: cell-based or functional assay. The source holds these as a separate data set.

B1: 15A10.G8 (antibody, V domains shown)
VH: EVQLQESGAELVRSGASIKLSCAASAFNIKDYFIHWVRQRPDQGLEWIGWIDPENDDTEYAPKFQDKATMTADTSSNTAYLQLSSLTSADTAVYYCNALWSRGGYFDYWGQGTTLTVSS
VL: EVLLTQSPAIIAASPGEKVTITCSARSSVSYMSWYQQKPGSSPKIWIYGISKLASGVPARFSGSGSGTYFSFTINNLEAEDVATYYCQQRSYYPFTFGSGTKLEIK
notes: Murine mAb
Regarding B1, in experiment [1], the Kd worked out at 1600 pM, the koff was determined as 0.000494 s⁻¹ and the kon came out at 301000 M⁻¹ s⁻¹. In addition, in [2], the Kd was determined as 3300 pM, the koff is 0.000659 s⁻¹ and the kon was determined as 196000 M⁻¹ s⁻¹.

B2: AB0089 TriNKET (other)
chain: QLQLQESGPGLVKPSETLSLTCTVSGFSLTNYGLHWIRQPPGKCLEWIGVIWVGGATDYNPSLKSRVTISVDTSKNQFSLKLSSVQAADTAVYYCAKGDYGDTLDYWGQGTLVTVSSGGGGSGGGGSGGGGSGGGGSDIQMTQSPSSLSASVGDRVTITCHASQNINFWLSWYQQKPGKAPKLLIYEASNLHTGVPSRFSGSGSGTDFTLTISSLQPEDFATYYCQQSHSYPLTFGCGTKLEIKGSDKTHTCPPCPAPELLGGPSVFLFPPKPKDTLMISRTPEVTCVVVDVSHEDPEVKFNWYVDGVEVHNAKTKPREEQYNSTYRVVSVLTVLHQDWLNGKEYKCKVSNKALPAPIEKTISKAKGQPREPRVYTLPPCRDELTKNQVSLTCLVKGFYPSDIAVEWESNGQPENNYKTTPPVLVSDGSFTLYSKLTVDKSRWQQGNVFSCSVMHEALHNHYTQKSLSLSPG
heavy: EVQLVESGGGLVKPGGSLRLSCAASGFTFSSYSMNWVRQAPGKGLEWVSSISSSSSYIYYADSVKGRFTISRDNAKNSLYLQMNSLRAEDTAVYYCARGAPIGAAAGWFDPWGQGTLVTVSSASTKGPSVFPLAPSSKSTSGGTAALGCLVKDYFPEPVTVSWNSGALTSGVHTFPAVLQSSGLYSLSSVVTVPSSSLGTQTYICNVNHKPSNTKVDKKVEPKSCDKTHTCPPCPAPELLGGPSVFLFPPKPKDTLMISRTPEVTCVVVDVSHEDPEVKFNWYVDGVEVHNAKTKPREEQYNSTYRVVSVLTVLHQDWLNGKEYKCKVSNKALPAPIEKTISKAKGQPREPQVCTLPPSRDELTENQVSLTCLVKGFYPSDIAVEWESNGQPENNYKTTPPVLDSDGSFFLYSWLTVDKSRWQQGNVFSCSVMHEALHNHYTQKSLSLSPG
light: DIQMTQSPSSVSASVGDRVTITCRASQGISSWLAWYQQKPGKAPKLLIYAASSLQSGVPSRFSGSGSGTDFTLTISSLQPEDFATYYCQQGVSFPRTFGGGTKVEIKRTVAAPSVFIFPPSDEQLKSGTASVVCLLNNFYPREAKVQWKVDNALQSGNSQESVTEQDSKDSTYSLSSTLTLSKADYEKHKVYACEVTHQGLSSPVTKSFNRGEC
notes: F3' format TriNKET
As to B2, the EC50 in experiment [3] was 1080 pM; in [4] it was 340 pM; in experiment [5], 2280 pM. In addition, the “FOB (fold over background)” value in [3] worked out at 70 fold; in experiment [4], 16 fold; in [5] it was 434 fold. The percent surface retention in [6] was 147%; in [7], 124%.

B3: AB0306 mAb (Humanized 1797 anti-CLEC12A mAb) (antibody, IgG1, V domains shown)
VH: EVQLVESGGGVVQPGGSLRLSCAASGFTFNAFGMHWVRQAPGKGLEWVAFISSGSTSIYYANTVKGRFTISRDNSKNTLYLQMNSLRAEDTAVYYCARDGYPTGGAMDYWGQGTSVTVSS
VL: DIQMTQSPSSLSASVGDRVTITCKASQDIYNYLSWFQQKPGKAPKPLIYRANILVSGVPSRFSGSGSGQDYTFTISSLQPEDIATYYCLQFDAFPFTFGSGTKLEIK
notes: Parental hIgG1 mAb of AB0192; also called parental mAb of AB0192
Regarding B3, the concentration for a half-maximal effect (EC50) came to 260 pM in experiment [3], 180 pM in experiment [4] and 680 pM in [5]. Besides, the “FOB (fold over background)” value in [3] was 47 fold; in experiment [4], 12 fold; in [5], 303 fold. Further, the figures for the percent surface retention in experiment [6] and in experiment [7] were 114% and 106%, respectively.

B4: m9F11-hIgG1 (antibody, V domains shown)
VH: EVQLQESGGGLVQPGGSRKLSCAASGFTFNSFGMHWVRQAPEKGLEWVAFISSGSTSIYYANTVKGRFTISRDNPKNTLFLQMTSLRSEDTAMYYCARDGYPTGGAMDYWGQGTSVTVSS
VL: DIKMTQSPSSMYASLGERVTITCKASQDIYNYLSWFQLKPGKSPRPLIYRANILVSGVPSKFSGSGSGQDYSLTINSLEYEDLGIYYCLQFDAFPFTFGSGTKLEIK
notes: also called chimeric parent mouse 9F11.B7 mAb
For B4, in [8], the Kd was determined as 1070 pM, the koff stood at 0.00102 s⁻¹ and the kon is 950000 M⁻¹ s⁻¹.

B5: Murine F3'-9F11 (other)
VH: B4 VH
VL: B4 VL
notes: the text calls it clone 9F11.B7; F3' construct (scFv order, Fc, NKG2D Fab) not spelled out
B5: in [9], the Kd is 960 pM, the koff was found to be 0.00111 s⁻¹ and the kon amounted to 1.15e+06 M⁻¹ s⁻¹. In the experiment with de-sialylated hCLEC12A, the Kd is 620 pM, the koff amounted to 0.00098 s⁻¹ and the kon was 1.58e+06 M⁻¹ s⁻¹. In the experiment with de-glycosylated hCLEC12A, this molecule registered a Kd of 340 pM, a koff of 0.000374 s⁻¹ and a kon of 1.11e+06 M⁻¹ s⁻¹.

B6: AB0305 mAb (Humanized 1739 anti-CLEC12A mAb) (antibody, V domains shown)
VH: QLQLQESGPGLVKPSETLSLTCTVSGFSLTNYGLHWIRQPPGKGLEWIGVIWVGGATDYNPSLKSRVTISVDTSKNQFSLKLSSVQAADTAVYYCAKGDYGDTLDYWGQGTLVTVSS
VL: DIQMTQSPSSLSASVGDRVTITCHASQNINFWLSWYQQKPGKAPKLLIYEASNLHTGVPSRFSGSGSGTDFTLTISSLQPEDFATYYCQQSHSYPLTFGSGTKLEIK
Regarding B6, in [10], the “EC50, primary NK mediated cytotoxic killing of PL21 cells” value is 1850 pM. For the same molecule, in [11], the “% Max, ADCP activity of M0 macrophages against PL21 cells” value was determined as 10% and the “EC50, ADCP activity of M0 macrophages against PL21 cells” value was determined as 20 pM.

B7: AB0305 mAb (Humanized 1739 anti-CLEC12A mAb) (antibody, IgG1, V domains shown)
VH: B6 VH
VL: B6 VL
notes: Parental hIgG1 mAb; also called parental mAb of AB0089
Turning to B7, the EC50 in experiment [3] was 120 pM; in experiment [4] it was 120 pM; in [5], 670 pM. The results for the “FOB (fold over background)” value in [3], in experiment [4] and in [5] were 53 fold, 15 fold and 279 fold, respectively. For the same molecule, the results for the percent surface retention in experiment [6] and in experiment [7] were 90% and 92%, respectively.

B8: AB0037 mAb (Humanized 1602 anti-CLEC12A mAb) (antibody, V domains shown)
VH: B6 VH with V53S, A56K, V71K, G98Y, G101D, T103S
VL: B6 VL with D70R, F83I, S100G
notes: Parental mAb of AB0237; also called humanized mAb 16B8.C8; parental mAb of AB0237
For the molecule B8, the EC50 in experiment [3] came to 520 pM; in experiment [4] it was 520 pM; in experiment [5] it was 1400 pM. Further, the “FOB (fold over background)” value is 51 fold in experiment [3], 13 fold in experiment [4] and 301 fold in experiment [5]. For the same molecule, the percent surface retention in experiment [6] came out at 74%; in [7], 79%.

As a reminder, the Kd is the concentration at which binding is half-saturated. The koff is a measure of how fast the partners let go of each other. For orientation: kon means the rate constant with which the complex forms. Broadly, the EC50 is the concentration needed to bring the measured effect to its halfway point.
